# Paper PMC8617249, “Pharmacokinetic and pharmacodynamic similarity between SAR341402 insulin aspart and Japan-approved NovoRapid in healthy Japanese subjects” (Scientific Reports, 2021)
# What was measured:
# [1] = Plasma insulin aspart pharmacokinetics after a single subcutaneous dose (LC-MS/MS, noncompartmental); type: in vivo, human; conditions: single 0.3 U/kg s.c.; for INS-AUCinf, gMean (% CV) / INS-Cmax, gMean (% CV) / INS-AUClast, gMean (% CV): healthy Japanese males, fasting, plasma, LC-MS/MS, geometric mean (%CV); for INS-AUCinf, gMean (% CV): extrapolated to infinity; for INS-AUCinf, gMean (% CV) / INS-AUClast, gMean (% CV): N = 39/40; for INS-Cmax, gMean (% CV): N = 39 SAR-Asp, 40 NN-Asp-Jp; for INS-AUClast, gMean (% CV): time 0 to last quantifiable point
# Excerpt: Following a screening visit 3–28 days before the first period, subjects enrolled into the study were admitted to the study clinic on the day before dosing. On the day of treatment, they were randomized (computer-generated by sponsor) to one of the two treatment sequences (see Supplementary Fig. S1). Subjects received a single subcutaneous dose of 0.3 U/kg SAR-Asp or NN-Asp-Jp in the first treatment period in randomized order followed by the other drug in the second treatment period. A wash-out period of 7–18 days separated each treatment period, with an end-of-study visit performed 4–8 days after the last dose.
# Venous blood samples for pharmacokinetic analysis were collected before dosing of study drug, and then every 15 to 60 min during the 10 h clamp period. Samples were centrifuged within 20 min of collection. Plasma was collected and kept frozen (− 60 to − 80 °C) until analysis. Plasma concentrations of SAR-Asp and NN-Asp-Jp were analyzed by using a validated liquid chromatography-tandem mass spectrometry (LC–MS/MS) assay at Syneos Health (Quebec, Canada). Plasma concentrations within the validated concentration range (100–8000 pg/mL) were used to calculated pharmacokinetic parameters. Inter-assay precision (% coefficient of variation [CV]) and inter-assay accuracy (%bias) during validation were ≤ 15%.
# The pharmacokinetic analysis dataset included subjects who completed at least one treatment period, had measurable insulin aspart concentrations and no major or critical deviations. Parameter estimates for SAR-Asp and NN-Asp-Jp were calculated by using standard noncompartmental methods with Phoenix WinNonlin 8.1 (Certara, Princeton, NJ). Area under the plasma insulin aspart concentration–time curve was calculated by the trapezoidal method from 0 to the time of the last concentration above the limit of quantification (INS-AUClast) and extrapolated to infinity (INS-AUCinf). Maximum plasma insulin aspart concentration observed (INS-Cmax) and INS-AUClast were the primary pharmacokinetic endpoints of the study. INS-AUCinf was a secondary endpoint.
# (§1) Log-transformed pharmacokinetic and pharmacodynamic parameter estimates for SAR-Asp and NN-Asp-Jp were analyzed using a linear mixed-effects model with period, sequence, and treatment as fixed effects and subject as a random effect. For each parameter, the model-based difference in treatment means along with the confidence limits (90% for pharmacokinetic parameters, 95% for pharmacodynamic parameters) was back-transformed to provide estimates for the ratio of geometric means (gMean) between treatments (SAR-Asp/NN-Asp-Jp) and the corresponding confidence limits. Similarity for the pharmacokinetic parameters (INS-AUCinf and INS-Cmax) and bioequipotency for the pharmacodynamic parameters (GIR-AUC0–10 h and GIRmax) was concluded if the confidence limits (90% and 95% confidence intervals [CIs], respectively) of the treatment ratios were entirely within the 0.80–1.25 equivalence interval, in agreement with regulatory guidance[2],[18]. Data was analyzed using SAS v9.4 (SAS Institute, Cary, NC).
# healthy Japanese males = test: 10 h automated euglycemic clamp, glucose infusion rate (glucodynamics); type: in vivo, human; conditions: single 0.3 U/kg s.c.; for GIR-AUC0-10 h, gMean (% CV) / GIRmax, gMean (% CV) / median GIR-tmax (time to reach GIRmax): healthy Japanese males, 10 h euglycemic clamp; for GIR-AUC0-10 h, gMean (% CV): body weight standardized GIR, N = 36 SAR-Asp, 38 NN-Asp-Jp; for GIR-AUC0-10 h, gMean (% CV) / GIRmax, gMean (% CV): geometric mean (%CV); for GIRmax, gMean (% CV): smoothed GIR (LOESS, 0.06), N = 36/38
# Description: Each dosing visit included a 10 h automated euglycemic clamp procedure (STG-55, Artificial Endocrine Pancreas; Nikkiso Co, Ltd, Tokyo, Japan)[13]. The premise of performing the clamp procedure is that the blood glucose lowering effect of an administered insulin is antagonized by a variable infusion of glucose so that blood glucose is maintained (or clamped) at a target level[2],[14]. The metabolic profile of the investigated insulin is characterized by the glucose infusion rate (GIR) needed to keep blood glucose as close as possible at its predefined target level during the glucose clamp.
# Following an overnight fast of at least 10 h, subjects were connected to the clamp device and their baseline blood glucose was determined (via glucose oxidase sensors that measure whole-blood glucose levels) before dosing of the study drug. For each subject, this was calculated as the mean of four glucose measurements at 30, 20, 10 and 1 min before administration of the study drugs. The clamp procedure was not performed in those subjects having a baseline glucose level less than 70 mg/dL ([…]). After dosing, onset of insulin action in each subject was when the blood glucose dropped below the target level of the clamp procedure, which was when it was 5 mg/dL (0.28 mmol/L) less than their fasting baseline value.
# Blood glucose levels were measured in 1-min intervals, and using a predefined algorithm the clamp device automatically administered a variable infusion of 10% glucose in response to changes in glucose to maintain each subject at their target glucose level. The GIR, being the amount of external glucose needed to keep a subject’s blood glucose concentration at its target level, was continuously measured, and recorded by the STG-55 device. GIR profiles reflected the metabolic effects of SAR-Asp and NN-Asp-Jp over time.
# The GIR over time was the primary pharmacodynamic parameter measured during the clamp procedure. The area under the body weight-standardized GIR time curve [GIR-AUC] measured insulin mediated glucose uptake into tissues. Subjects completing at least one clamp procedure with no major or critical deviations were included in the pharmacodynamic analysis dataset. Individual GIR values in each treatment group were standardized for body weight and subjected to a smoothing procedure using a locally weighted scatterplot smoothing (LOESS) function (SAS, PROC LOESS, factor 0.06). A smoothing factor of 6% was used based on the expected morphology of the GIR-profiles. Individual blood glucose levels were also subjected to a smoothing procedure. Fitted data were used to calculate the pharmacodynamic parameters, including the primary parameters of maximum smoothed body weight standardized GIR (GIRmax) and GIR-AUC over 10 h (GIR-AUC0–10 h), and the secondary parameter of time to reach GIRmax (GIR-tmax).
# as §1
# [2] = ratio of geometric means, linear mixed-effects model, equivalence range 0.80–1.25
# [3] = ratio of geometric means, linear mixed-effects model, 10 h clamp, equivalence range 0.80–1.25
Substance,"INS-AUCinf, gMean (% CV) [1]","INS-Cmax, gMean (% CV) [1]","INS-AUClast, gMean (% CV) [1]","INS-AUCinf mean ratio SAR-Asp/NN-Asp-Jp, point estimate (90% CI) [1, 2]","INS-AUClast mean ratio SAR-Asp/NN-Asp-Jp, point estimate (90% CI) [1, 2]","INS-Cmax mean ratio SAR-Asp/NN-Asp-Jp, point estimate (90% CI) [1, 2]","GIR-AUC0-10 h, gMean (% CV) (healthy Japanese males)","GIRmax, gMean (% CV) (healthy Japanese males)",median GIR-tmax (time to reach GIRmax) (healthy Japanese males) [h],"GIR-AUC0-10 h mean ratio SAR-Asp/NN-Asp-Jp, point estimate (95% CI) (healthy Japanese males; [3])","GIRmax mean ratio SAR-Asp/NN-Asp-Jp, point estimate (95% CI) (healthy Japanese males; [3])"
insulin aspart [SAR-Asp],"15,400 (26) pg·h/mL",6690 (32) pg/mL,"15,300 (27) pg·h/mL",1.02,1.02,1.00,2054.12 (22.2) mg/kg,8.70 (20.9) mg/(kg·min),2.82,1.00,1.01
insulin aspart [NN-Asp-Jp],"15,200 (27) pg·h/mL",6690 (31) pg/mL,"15,100 (27) pg·h/mL",–,–,–,2098.06 (23.5) mg/kg,8.72 (21.0) mg/(kg·min),2.35,–,–
